Experimental data from patent US20250276077A1, “EPHA2 ANTIBODIES” (Immunome, Inc., priority 2022, published 2025).

Experiments:
[1] = target: Human EphA2 (ephrin receptor A2), native, in human tumor tissue (human) (UniProt P29317); experiment: IF tumor tissue NSCLC-SQ, 30 ug/ml
[2] = target: Human EphA2 (ephrin receptor A2), native, in human tumor tissue (human) (UniProt P29317); experiment: IF tumor tissue Uterine, 3 ug/ml
[3] = target: Human EphA2 (ephrin receptor A2), native, in human tumor tissue (human) (UniProt P29317); experiment: IF tumor tissue RCC-papillary, 0.3 ug/ml
[4] = target: Human EphA2 (ephrin receptor A2), native, in human tumor tissue (human) (UniProt P29317); experiment: IF tumor tissue STS, 30 ug/ml
[5] = target: Human EphA2 (ephrin receptor A2), native, in human tumor tissue (human) (UniProt P29317); experiment: IF tumor tissue STS, 10 ug/ml
[6] = target: Human EphA2 (ephrin receptor A2), native, in human tumor tissue (human) (UniProt P29317); experiment: IF tumor tissue URO, 10 ug/ml
[7] = target: Human EphA2 (ephrin receptor A2), native, in human tumor tissue (human) (UniProt P29317); experiment: IF tumor tissue PANC, 0.1 ug/ml
[8] = target: Human EphA2 (ephrin receptor A2), native, in human tumor tissue (human) (UniProt P29317); experiment: IF tumor tissue PANC, 3 ug/ml
[9] = target: Human EphA2 (ephrin receptor A2), native, in human tumor tissue (human) (UniProt P29317); experiment: IF tumor tissue MELA, 0.3 ug/ml
[10] = target: Human EphA2 (ephrin receptor A2), native, in human tumor tissue (human) (UniProt P29317); experiment: IF tumor tissue Uterine, 1 ug/ml
[11] = target: Human EphA2 (ephrin receptor A2), native, in human tumor tissue (human) (UniProt P29317); experiment: IF tumor tissue PANC, 10 ug/ml
[12] = target: Human EphA2 (ephrin receptor A2), native, in human tumor tissue (human) (UniProt P29317); experiment: IF tumor tissue STS, 1 ug/ml
[13] = target: Human EphA2 (ephrin receptor A2), native, in human tumor tissue (human) (UniProt P29317); experiment: IF tumor tissue RCC-papillary, 3 ug/ml
[14] = target: Human EphA2 (ephrin receptor A2), native, in human tumor tissue (human) (UniProt P29317); experiment: IF tumor tissue NSCLC-Adeno, 0.3 ug/ml
[15] = target: Human EphA2 (ephrin receptor A2), native, in human tumor tissue (human) (UniProt P29317); experiment: IF tumor tissue NSCLC-SQ, 0.1 ug/ml
[16] = target: Human EphA2 (ephrin receptor A2), native, in human tumor tissue (human) (UniProt P29317); experiment: IF tumor tissue RCC-papillary, 0.1 ug/ml
[17] = target: Human EphA2 (ephrin receptor A2), native, in human tumor tissue (human) (UniProt P29317); experiment: IF tumor tissue PANC, 1 ug/ml
[18] = target: Human EphA2 (ephrin receptor A2), native, in human tumor tissue (human) (UniProt P29317); experiment: IF tumor tissue NSCLC-Adeno, 10 ug/ml
[19] = target: Human EphA2 (ephrin receptor A2), native, in human tumor tissue (human) (UniProt P29317); experiment: IF tumor tissue STS, 3 ug/ml
[20] = target: Human EphA2 (ephrin receptor A2), native, in human tumor tissue (human) (UniProt P29317); experiment: IF tumor tissue Uterine, 30 ug/ml
[21] = target: Human EphA2 (ephrin receptor A2), native, in human tumor tissue (human) (UniProt P29317); experiment: IF tumor tissue RCC-papillary, 1 ug/ml
[22] = target: Human EphA2 (ephrin receptor A2), native, in human tumor tissue (human) (UniProt P29317); experiment: IF tumor tissue ESO, 1 ug/ml
[23] = target: Human EphA2 (ephrin receptor A2), native, in human tumor tissue (human) (UniProt P29317); experiment: IF tumor tissue Uterine, 0.1 ug/ml
[24] = target: Human EphA2 (ephrin receptor A2), native, in human tumor tissue (human) (UniProt P29317); experiment: tissue staining of human cancer samples, 3 ug/ml
[25] = target: Human EphA2 (ephrin receptor A2), native, in human tumor tissue (human) (UniProt P29317); experiment: IF tumor tissue URO, 1 ug/ml
[26] = target: Human EphA2 (ephrin receptor A2), native, in human tumor tissue (human) (UniProt P29317); experiment: IF tumor tissue MELA, 1 ug/ml
[27] = target: Human EphA2 (ephrin receptor A2), native, in human tumor tissue (human) (UniProt P29317); experiment: IF tumor tissue MELA, 10 ug/ml
[28] = target: Human EphA2 (ephrin receptor A2), native, in human tumor tissue (human) (UniProt P29317); experiment: IF tumor tissue URO, 3 ug/ml
[29] = target: Human EphA2 (ephrin receptor A2), native, in human tumor tissue (human) (UniProt P29317); experiment: IF tumor tissue RCC-papillary, 30 ug/ml
[30] = target: Human EphA2 (ephrin receptor A2), native, in human tumor tissue (human) (UniProt P29317); experiment: IF tumor tissue NSCLC-SQ, 1 ug/ml
[31] = target: Human EphA2 (ephrin receptor A2), native, in human tumor tissue (human) (UniProt P29317); experiment: IF tumor tissue ESO, 3 ug/ml
[32] = target: Human EphA2 (ephrin receptor A2), native, in human tumor tissue (human) (UniProt P29317); experiment: IF tumor tissue Uterine, 10 ug/ml
[33] = target: Human EphA2 (ephrin receptor A2), native, in human tumor tissue (human) (UniProt P29317); experiment: IF tumor tissue MELA, 30 ug/ml
[34] = target: Human EphA2 (ephrin receptor A2), native, in human tumor tissue (human) (UniProt P29317); experiment: IF tumor tissue URO, 0.1 ug/ml

Sequence of Human EphA2 (ephrin receptor A2), native, in human tumor tissue (human) (P29317 25-976): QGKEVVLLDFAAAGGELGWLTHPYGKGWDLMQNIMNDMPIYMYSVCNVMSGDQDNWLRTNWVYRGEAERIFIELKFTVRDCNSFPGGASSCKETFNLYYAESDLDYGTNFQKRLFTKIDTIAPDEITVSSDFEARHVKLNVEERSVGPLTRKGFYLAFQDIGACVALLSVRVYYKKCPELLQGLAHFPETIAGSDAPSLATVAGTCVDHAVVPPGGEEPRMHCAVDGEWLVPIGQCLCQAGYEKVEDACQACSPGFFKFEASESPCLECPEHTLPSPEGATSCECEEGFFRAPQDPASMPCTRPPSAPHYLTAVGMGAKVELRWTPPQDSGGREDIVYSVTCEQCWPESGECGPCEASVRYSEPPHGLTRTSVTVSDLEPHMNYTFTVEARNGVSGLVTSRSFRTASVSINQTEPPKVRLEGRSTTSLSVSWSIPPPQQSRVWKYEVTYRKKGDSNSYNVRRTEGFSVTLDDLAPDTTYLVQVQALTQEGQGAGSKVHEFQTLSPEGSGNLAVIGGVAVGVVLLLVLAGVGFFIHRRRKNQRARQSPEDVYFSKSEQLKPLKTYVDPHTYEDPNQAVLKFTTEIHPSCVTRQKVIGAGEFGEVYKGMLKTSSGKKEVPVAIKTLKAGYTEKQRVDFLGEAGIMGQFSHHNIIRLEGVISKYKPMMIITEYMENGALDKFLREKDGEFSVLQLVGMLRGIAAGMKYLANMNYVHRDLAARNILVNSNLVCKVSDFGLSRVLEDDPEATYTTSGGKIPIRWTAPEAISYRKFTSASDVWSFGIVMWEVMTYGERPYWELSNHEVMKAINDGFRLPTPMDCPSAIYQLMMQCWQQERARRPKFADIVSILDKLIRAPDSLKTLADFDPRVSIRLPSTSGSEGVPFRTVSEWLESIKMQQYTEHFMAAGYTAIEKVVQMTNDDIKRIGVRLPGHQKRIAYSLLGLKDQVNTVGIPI

AB-010018 (mouse monoclonal antibody precursor of DS-8895a; mouse IgG2a format)
tissue reactivity score [1]: 2
tissue reactivity score [2]: 2
tissue reactivity score [3]: 1
tissue reactivity score [4]: 2
tissue reactivity score [5]: 1
tissue reactivity score [6]: 2
tissue reactivity score [7]: 2
tissue reactivity score [8]: 2
tissue reactivity score [9]: 2
tissue reactivity score [10]: 2
tissue reactivity score [11]: 2
tissue reactivity score [12]: 1
tissue reactivity score [13]: 2
tissue reactivity score [14]: 1
tissue reactivity score [15]: 1
tissue reactivity score [16]: 1
tissue reactivity score [17]: 2
tissue reactivity score [18]: 1
tissue reactivity score [19]: 1
tissue reactivity score [20]: 2
tissue reactivity score [21]: 1
tissue reactivity score [22]: 1
tissue reactivity score [23]: 1
Reactive (% of samples), Bladder Urothelial Carcinoma [24]: 77%
Reactive (% of samples), Breast Cancer [24]: 93%
Reactive (% of samples), Cervical Squamous Cell Carcinoma [24]: 75%
Reactive (% of samples), Colorectal Adenocarcinoma [24]: 85%
Reactive (% of samples), Head & Neck Squamous Cell Carcinoma [24]: 63%
Reactive (% of samples), Liver Hepatocellular Cell Carcinoma [24]: 39%
Reactive (% of samples), Melanoma [24]: 46%
Reactive (% of samples), Ovarian Cancer [24]: 71%
Reactive (% of samples), Soft Tissue Sarcoma [24]: 14%
Reactive (% of samples), Stomach Adenocarcinoma [24]: 88%
Reactive (% of samples), Testicular Cancer [24]: 17%
Reactive (% of samples), Thyroid Cancer [24]: 13%
Reactive (% of samples), Uterine Cancer [24]: 38%
tissue reactivity score [25]: 2
tissue reactivity score [26]: 2
tissue reactivity score [27]: 2
tissue reactivity score [28]: 2
tissue reactivity score [29]: 2
tissue reactivity score [30]: 1
tissue reactivity score [31]: 1
tissue reactivity score [32]: 2
tissue reactivity score [33]: 2
tissue reactivity score [34]: 2
